Biological target: human CD122/CD132 on cells of human PBMCs (human) (UniProt P14784)
Assay: cell-based or functional assay

Chain of human CD122/CD132 on cells of human PBMCs (human) (P14784 27-551, chain 1 of 2): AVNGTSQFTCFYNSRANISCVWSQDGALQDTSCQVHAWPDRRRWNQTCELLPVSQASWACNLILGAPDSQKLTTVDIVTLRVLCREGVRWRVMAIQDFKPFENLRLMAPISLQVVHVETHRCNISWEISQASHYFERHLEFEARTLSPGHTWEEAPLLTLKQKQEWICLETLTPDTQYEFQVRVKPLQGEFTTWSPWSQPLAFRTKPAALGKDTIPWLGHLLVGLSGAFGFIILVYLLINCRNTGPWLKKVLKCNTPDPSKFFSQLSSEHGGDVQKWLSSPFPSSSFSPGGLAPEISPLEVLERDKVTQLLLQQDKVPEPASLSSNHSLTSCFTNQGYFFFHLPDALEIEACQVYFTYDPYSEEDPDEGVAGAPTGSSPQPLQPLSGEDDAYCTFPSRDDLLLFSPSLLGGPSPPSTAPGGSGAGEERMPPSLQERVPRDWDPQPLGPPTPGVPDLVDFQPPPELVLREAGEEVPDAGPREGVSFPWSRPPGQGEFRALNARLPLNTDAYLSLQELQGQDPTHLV
Chain of human CD122/CD132 on cells of human PBMCs (human) (P31785 23-369, chain 2 of 2, further chain): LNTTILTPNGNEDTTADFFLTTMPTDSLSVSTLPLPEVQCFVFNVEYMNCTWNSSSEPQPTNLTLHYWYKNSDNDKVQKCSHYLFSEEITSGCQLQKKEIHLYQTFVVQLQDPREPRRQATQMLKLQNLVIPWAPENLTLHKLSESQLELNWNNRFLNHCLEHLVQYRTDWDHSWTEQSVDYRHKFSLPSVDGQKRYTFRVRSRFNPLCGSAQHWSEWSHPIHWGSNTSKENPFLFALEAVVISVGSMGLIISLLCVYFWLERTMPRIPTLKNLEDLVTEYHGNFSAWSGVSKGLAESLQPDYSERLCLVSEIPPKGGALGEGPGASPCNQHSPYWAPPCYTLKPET

pSTAT5 EC50 on human CD8+cm T cells (hPBMC) [nM]	pSTAT5 EC50 on human NK cells (hPBMC) [nM]	Binder
3.67	0.946	Isotype control--IL15 M1 (protein, part only; not given: Isotype control antibody chains and linker, part only) heavy, part: AWVNVISDLKKIEDLIQSMHIDATLYTESNVHPSCKVTAMKCFLLGLQRISLESGDASIHDTVENLIILANNSLSSNGNVTESGCKECEELEEKNIKEFLQSFVHIVQMFINTS
37.6	11.2	Isotype control--IL15 M2 (protein, part only; not given: Isotype control antibody chains and linker, part only) heavy, part: GWVNVISDLKKIEDLIQSMHIDATLYTESNVHPSCKVTAMKCFLLGLQRISLESGDASIHDTVQNLIILANNSLSSNGNVTESGCKECEELEEKNIKEFLQSFVHIVQMFINTS

— patent publication US20210324028A1
